Entries after “also recorded” stand apart in the source; their conditions may differ.
Legend:
[1] = Guanidine hydrochloride-induced unfolding monitored by tryptophan fluorescence; assay type: physicochemical; conditions: guanidine hydrochloride 0 to 6 mol/L, two-state linear extrapolation to H2O
Description: Intrinsic fluorescence of oxidized and reduced form of L-SH2 domain, as well as that of the cysteine mutants C122S and C164S L-SH2, was measured to examine the role of the disulfide bond in the stability of the Csk SH2 domain. […] The thermodynamic stability of these oxidized and reduced L-SH2 domains, as well as that of the mutants at equilibrium, were characterized by determining the free energy of unfolding by using guanidine hydrochloride-induced unfolding experiments monitored by tryptophan fluorescence (Fig. 4A). The curves were fitted using the linear extrapolation model to obtain the ∆G for unfolding in H2O (Santoro and Bolen [1988]). […]
Fluorescence titrations were performed at 25 °C in 3 mL of 50 mmol/L Tris-HCl (pH 7.5) using excitation and emission wavelengths of 288 nm and 320 nm, respectively. […] The concentrations of guanidine hydrochloride of the solutions were determined by measuring the index of refraction and by using the following equation: d/d 0 = 1 + 0.2710 W + 0.0330 W ^2 (Tanford et al. [1966]), where W is the weight fraction of guanidine hydrochloride in the solution, d is the density of the solution, and d 0 is the density of water. […] The signals were normalized to the fraction of unfolded species using the standard relation F unf = (I − I N)/(I U − I N), where N and U stand for the fluorescence intensity of the native and fully unfolded species, respectively. […]

[2] = system: Csk L-SH2 disulfide bond; experiment: NMR-monitored reduction of oxidized SH2 by DTT; assay type: physicochemical, human; conditions: 10 mmol/L DTT, 50 mmol/L Tris-HCl pH 7.5, 1.0 mmol/L EDTA, 0.01% NaN3, 5% D2O, 298 K, NMR peak intensity
Text: During purification of the Csk L-SH2 domain, 50 mmol/L DTT was used to elute the protein from the chitin resin. The L-SH2 was used in reduced form, given that DTT was used to cleave L-SH2 from its intein fusion partner. Following elution of the protein from the ion exchange column, the L-SH2 became a mixture of the reduced and oxidized forms. The fully oxidized form was obtained by exposing the protein to air for several days.
Fig. 3 Comparison of the oxidized and reduced form of SH2. A Comparison of ^1H–^15N HSQC of oxidized (red) and reduced (green) SH2. B Combined chemical shift change of oxidized and reduced form SH2. The difference was calculated as ∆δ tot = [(∆δ H)^2 + (0.154∆δ N)^2]^1/2. […]
All NMR experiments were performed at 298 K on 800 MHz spectrometers equipped with triple-resonance cryoprobes. […] The combined change in chemical shift of a particular residue upon ligation with the kinase domain was calculated as ∆δ = [(∆δ H)^2 + (0.154∆δ N)^2]^1/2, where ∆δ H and ∆δ N correspond to the changes in amide proton and nitrogen chemical shift, respectively. The weight factor for ^1H and ^15N is determined from the ratio of the average variances of the amide nitrogen and proton chemical shifts observed for the 20 common amino acid residues in proteins deposited in the BioMagResBank (Mulder et al. [1999]). […]

[3] = system: full-length Csk; conditions: ref Mills et al. [2007], cited from earlier work
Text: Disulfide bonds are mostly found in secretory proteins and in extracellular domains of membrane proteins. Cytosolic proteins, which contain cysteine residues that are in close proximity to each other, may function as oxidation sensors; when the reductive potential of the cell fails, they oxidize and trigger cellular response mechanisms (Sevier and Kaiser [2002]). Mills et al. studied the unique disulfide bond of Csk SH2 that is absent in other known SH2 domains.

B1: oxidized L-SH2: human Csk SH2 domain with SH3–SH2 linker, residues A73–A178, disulfide oxidized (PDB 3EAC) (protein)
chain: AGTKLSLMPWFHGKITREQAERLLYPPETGLFLVRESTNYPGDYTLCVSCDGKVEHYRIMYHASKLSIDEEVYFENLMQLVEHYTSDADGLCTRLIKPKVMEGTVA
modifications: disulfide bond C122–C164; left off: intein, end not stated, cleaved
- free energy of unfolding ΔG U,W^0 [1]: 10.1 ± 0.382 kcal/mol
- t1/2 of the reduction reaction [2]: 2.6 ± 0.1 h

B2: reduced L-SH2: human Csk SH2 domain with SH3–SH2 linker, residues A73–A178, reduced form (protein)
chain: B1 chain
modifications: left off: intein, end not stated, cleaved
notes: human Csk SH2 domain with SH3–SH2 linker, residues A73–A178, reduced form
- free energy of unfolding ΔG U,W^0 [1]: 6.57 ± 0.17 kcal/mol

B3: full-length Csk: C-terminal Src kinase, full length (protein, UniProt P41240 1-450, looked up)
chain: MSAIQAAWPSGTECIAKYNFHGTAEQDLPFCKGDVLTIVAVTKDPNWYKAKNKVGREGIIPANYVQKREGVKAGTKLSLMPWFHGKITREQAERLLYPPETGLFLVRESTNYPGDYTLCVSCDGKVEHYRIMYHASKLSIDEEVYFENLMQLVEHYTSDADGLCTRLIKPKVMEGTVAAQDEFYRSGWALNMKELKLLQTIGKGEFGDVMLGDYRGNKVAVKCIKNDATAQAFLAEASVMTQLRHSNLVQLLGVIVEEKGGLYIVTEYMAKGSLVDYLRSRGRSVLGGDCLLKFSLDVCEAMEYLEGNNFVHRDLAARNVLVSEDNVAKVSDFGLTKEASSTQDTGKLPVKWTAPEALREKKFSTKSDVWSFGILLWEIYSFGRVPYPRIPLKDVVPRVEKGYKMDAPDGCPPAVYEVMKNCWHLDAAMRPSFLQLREQLEHIKTHELHL
modifications: full-length
- kinase activity upon formation of the disulfide bond in the SH2 domain ([3]; full-length Csk): decreases by an order of magnitude; also recorded: reduced by an order of magnitude
- kinase activity on prevention of the reduction of disulfide bond ([3]; restored upon re-introduction of reducing agent): tenfold reduction in kinase activity
